Assay results as given in patent publication US20130195872A1 (NOVIMMUNE S A, published 2013).

T1: human IL-17A homodimer (human, UniProt Q16552 20-155, limits assumed)
T1 sequence (looked up): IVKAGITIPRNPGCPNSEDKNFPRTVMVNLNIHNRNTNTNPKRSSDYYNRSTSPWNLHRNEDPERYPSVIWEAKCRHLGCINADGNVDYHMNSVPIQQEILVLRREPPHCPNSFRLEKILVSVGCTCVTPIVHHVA

T2: human IL-17A/IL-17F heterodimer (human, UniProt Q16552 24-155; Q96PD4 31-163, limits assumed)
T2 sequence (looked up) 1: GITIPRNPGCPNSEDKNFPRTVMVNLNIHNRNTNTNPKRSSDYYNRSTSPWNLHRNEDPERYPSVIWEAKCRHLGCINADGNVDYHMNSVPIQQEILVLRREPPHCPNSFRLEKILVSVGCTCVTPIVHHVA
T2 sequence (looked up) 2: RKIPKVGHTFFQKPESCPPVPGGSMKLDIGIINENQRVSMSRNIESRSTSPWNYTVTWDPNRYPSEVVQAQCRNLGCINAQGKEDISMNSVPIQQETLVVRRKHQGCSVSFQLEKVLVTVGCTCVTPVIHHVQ

T3: cynomolgus IL-17F homodimer (cynomolgus, UniProt G7P4V0 31-163)
T3 sequence: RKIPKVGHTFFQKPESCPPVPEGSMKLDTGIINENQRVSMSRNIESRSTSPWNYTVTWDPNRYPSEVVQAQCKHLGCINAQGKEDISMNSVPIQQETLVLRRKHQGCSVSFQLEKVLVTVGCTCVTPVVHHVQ

T4: cynomolgus IL-17A homodimer (cynomolgus, UniProt A0A2K5TTB0 20-155)
T4 sequence: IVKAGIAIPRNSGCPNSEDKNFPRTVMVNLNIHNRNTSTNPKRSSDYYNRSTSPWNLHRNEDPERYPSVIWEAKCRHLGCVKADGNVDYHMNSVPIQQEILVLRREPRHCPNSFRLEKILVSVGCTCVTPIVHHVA

T5: rat IL-17A homodimer (rat, UniProt Q61453 18-150, limits assumed)
T5 sequence (looked up): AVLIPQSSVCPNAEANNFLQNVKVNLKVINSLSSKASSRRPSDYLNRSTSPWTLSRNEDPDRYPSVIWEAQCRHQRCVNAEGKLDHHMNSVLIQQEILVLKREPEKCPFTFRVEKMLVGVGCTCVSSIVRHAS

T6: mouse IL-17F homodimer (mouse, UniProt Q7TNI7 29-161, limits assumed)
T6 sequence (looked up): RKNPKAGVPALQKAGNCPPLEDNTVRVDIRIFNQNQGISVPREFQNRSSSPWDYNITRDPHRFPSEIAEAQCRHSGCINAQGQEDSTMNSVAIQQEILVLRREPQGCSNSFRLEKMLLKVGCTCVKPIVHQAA

T7: mouse IL-17A homodimer (mouse, UniProt Q62386 26-158, limits assumed)
T7 sequence (looked up): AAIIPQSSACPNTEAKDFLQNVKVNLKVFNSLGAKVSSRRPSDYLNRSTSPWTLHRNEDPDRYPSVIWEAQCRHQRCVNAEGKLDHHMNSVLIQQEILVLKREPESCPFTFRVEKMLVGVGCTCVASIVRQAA


Assays:
human IL-17A homodimer [1] = biological target: T1, human IL-17A homodimer; test: cell-based or functional assay
[2] = biological target: T2, human IL-17A/IL-17F heterodimer; test: cell-based or functional assay
[3] = biological target: T3, cynomolgus IL-17F homodimer; test: cell-based or functional assay
[4] = biological target: T4, cynomolgus IL-17A homodimer; test: cell-based or functional assay
[5] = biological target: cynomolgus IL-17A/IL-17F heterodimer (cynomolgus); test: cell-based or functional assay
rat IL-17A homodimer = biological target: T5, rat IL-17A homodimer; test: cell-based or functional assay
human IL-17A homodimer [6] = biological target: T1, human IL-17A homodimer; test: cell-based or functional assay; remark: listed apart in the source
[7] = biological target: T4, cynomolgus IL-17A homodimer; test: cell-based or functional assay; remark: listed apart in the source
human IL-17A homodimer [8] = biological target: T1, human IL-17A homodimer; test: SPR Biacore, mAb captured, cytokine as analyte
Protocol: (§1) The affinity and binding kinetics of huIL-17F cross-reactive antibodies were characterized on a Biacore 2000 instrument (Biacore AB, Uppsala, Sweden). […] This surface was used to capture huIL-17A/F antibodies. The surface was regenerated after each cycle by injection of 10 mM glycine pH=1.5 at 20 μL/min, for 30 s followed by 1 min of stabilization time in HBS-EP buffer (Biacore AB, Uppsala, Sweden).
(§2) All solutions were diluted in HBS-EP buffer. Injection was performed at 75 μl/min for 3 min followed by 12 min of dissociation time and the temperature was set at 25° C.

[9] = biological target: T2, human IL-17A/IL-17F heterodimer; test: SPR Biacore, mAb captured, cytokine as analyte
Protocol: as §1, §2

mouse IL-17F homodimer = biological target: T6, mouse IL-17F homodimer; test: cell-based or functional assay
mouse IL-17A homodimer = biological target: T7, mouse IL-17A homodimer; test: cell-based or functional assay

Binder | IC50, IL-6 secretion by MEF cells, cytokine at 5 ng/ml (human IL-17A homodimer [1]) [nM] | IC50, IL-6 secretion by MEF cells, cytokine at 17.5 ng/ml [2] [nM] | IC50, IL-6 secretion by MEF cells, cytokine at 25 ng/ml [3] [nM] | IC50, IL-6 secretion by MEF cells, cytokine at 5 ng/ml [4] [nM] | IC50, IL-6 secretion by MEF cells, cytokine at 25 ng/ml [5] [nM] | IC50, IL-6 secretion by MEF cells, cytokine at 5 ng/ml (rat IL-17A homodimer) [nM] | IC50, IL-6 secretion by HFFF2 human fibroblasts, cytokine at 25 ng/ml (human IL-17A homodimer [6]) [nM] | IC50, IL-6 secretion by HFFF2 human fibroblasts, cytokine at 25 ng/ml [7] [nM] | Kd (human IL-17A homodimer [8]) [nM] | Kd [9] [nM] | IC50, IL-6 secretion by MEF cells, cytokine at 50 ng/ml (mouse IL-17F homodimer) [nM] | IC50, IL-6 secretion by MEF cells, cytokine at 5 ng/ml (mouse IL-17A homodimer) [nM]
15E6 antibody (antibody, IgG4, V domains shown, also called 15E6 IgG4) VH: EVQLVESGGGLVQPGRSLRLSCAASGFTFDDYAMHWVRQAPGKGLEWVSGINWNSGGIGYADSVKGRFTISRDNAKNSLYLQMNSLRAEDTALYYCARDMGGFGEFYWNFGLWGRGTLVTVSS VL: not shown | 1.6 | 1.1 | 1.4 | 2 | 0.18 | – | 3.9 | 4.5 | 0.0364 | 0.0447 | > 1000 | –
1E4 antibody (antibody, IgG4, V domains shown) VH: QVQLVQSGAEVKKPGASVKVSCKASVYTFTTYGISWVRQAPGQGLEWMGWISVYNGNTNYGQNFQGRVSMTTDTSTSTAYMELRSLRSDDTAVYYCASFHGGHSGYHYGLDVWGQGTTVTVSS VL: EIVLTQSPATLSLSPGERATLSCRASQSVSSYLAWYQQKPGQAPRLLIYDASNRATGIPARFSGSGSGTDFTLTISSLEPEDFAVYYCQQRSNWPPYTFGQGTKLEIK | 480 | 16 | 3.4 | 330 | – | – | – | – | – | – | – | –
31A3 antibody (antibody, IgG1, V domains shown) VH: QVQLVQSGAEVKKPGASVKVSCKASVYTFTTYGISWVRQAPGQGLEWMGWITVYNGNTNYAQKFHGRVTMTTDTSTSTAYMELRSLRSDDTAVYYCASFHGGHSGYHYGLDVWGQGTTVTVSS VL: EIVLTQSPATLSLSPGERATLSCRASQSVSSYLAWYQQKPGQAPRLLIYDASNRATGIPARFSGSGSGTDFTLTISSLEPEDFAVYYCQQRSNWPPYTFGQGTKLEIK | – | 9.2 | 4.2 | 290 | – | – | – | – | – | – | – | –
12B12 antibody (antibody, IgG4, V domains shown) VH: QVQLVQSGAEVKKPGSSVKVSCKASGGTLSSYAFSWVRQAPGQGLEWMGGIIPFFGTVNYAQKFQGRVTITADESTNTAYMELSSLRSEDTAVYYCARDRDYYGLGSPLHYYGLDVWGQGTTVTVSS VL: EIVLTQSPDFQSVTPKEKVTITCRASQSIGSSLHWYQQKPDQSPKLLIKYASQSFSGVPSRFSGSGSGTDFTLTINSLEAEDAAAYYCHQSSSLPWTFGQGTKVEIK | 33 | 13 | 3.2 | 13 | – | > 1000 | – | – | – | – | 4.2 | > 1000
15B7 antibody (antibody, IgG4, V domains shown) VH: QVQLVQSGAEVKKPGSSVKVSCKASGGTLSSYAFSWVRQAPGQGLEWMGGIIPFFGTAHYAQKFQGRVTITADESTNTAYMELSSLRSEDTAVYYCARDRDYYGSGSPFHFSGLDVWGQGTTVTVSS VL: EIVLTQSPDFQSVTPKEKVTITCRASQSIGSSLHWYQQKPDQSPKLLIKYASQSFSGVPSRFSGSGSGTDFTLTINSLEAEDAAAYYCHQSSSLPWTFGQGTKVEIK | 180 | 160 | 15 | 140 | – | > 1000 | – | – | – | – | 22 | > 1000

Further lines, results first:

IC50, IL-6 secretion by MEF cells, cytokine at 5 ng/ml (human IL-17A homodimer [1]) [nM] | IC50, IL-6 secretion by MEF cells, cytokine at 17.5 ng/ml [2] [nM] | IC50, IL-6 secretion by MEF cells, cytokine at 25 ng/ml [3] [nM] | IC50, IL-6 secretion by MEF cells, cytokine at 5 ng/ml [4] [nM] | IC50, IL-6 secretion by MEF cells, cytokine at 25 ng/ml [5] [nM] | IC50, IL-6 secretion by MEF cells, cytokine at 5 ng/ml (rat IL-17A homodimer) [nM] | IC50, IL-6 secretion by HFFF2 human fibroblasts, cytokine at 25 ng/ml (human IL-17A homodimer [6]) [nM] | IC50, IL-6 secretion by HFFF2 human fibroblasts, cytokine at 25 ng/ml [7] [nM] | Kd (human IL-17A homodimer [8]) [nM] | Kd [9] [nM] | IC50, IL-6 secretion by MEF cells, cytokine at 50 ng/ml (mouse IL-17F homodimer) [nM] | IC50, IL-6 secretion by MEF cells, cytokine at 5 ng/ml (mouse IL-17A homodimer) [nM] | Binder
100 | 240 | 50 | 230 | – | – | – | – | – | – | – | – | 8B11 antibody (antibody, IgG3, V domains shown) VH: EVQLVESGGGLVHPGGSLRLSCAASGFTFSSFNMDWVRQAPGKGLEWVSSISTTSRIIYSADSVKGRFTISRDNARNSLYLQMNSLRDEDTAVYYCARVSYYGHGFDYWGQGTLVTVSS VL: DIQMTQSPSSLSASVGDRVTITCRASQGISSWLAWYQQKPEKAPKSLIYAASSLQSGVPSRFSGSGSGTDFTLTISSLQPEDFATYYCQQYNSYPLTFGGGTKVEIK
1.1 | 31 | 130 | 3 | 15 | > 1000 | 4.2 | 6.6 | 0.0594 | 0.0981 | – | – | 30D12 antibody (antibody, IgG1, V domains shown, Fully human monoclonal antibody; also called 30D12 IgG1) VH: QVQLVQSGAEVKKPGASVKVSCKASGYTFTSYDINWVRQATGQGLEWMGWMNPDSGVIRYAQKFQGRVTMTRNTSISTAYMELNSLRSEDTAVYYCAREWFGELPSYYFYSGMDVWGQGTTVTVSS VL: EIVLTQSPATLSLSPGERATLSCRASQSVSSYLAWYQQKPGQAPRLLIYDASNRATGIPARFSGSGSGTDFTLTISSLEPEDFAVYYCQQRSNWPPTFGPGTKVDIK
40 | 1.1 | 3.6 | 8.4 | 0.56 | – | 36 | – | – | – | – | – | 29D8 antibody (antibody, IgG1, V domains shown) VH: QVQLVQSGAEVKKPGASVKVSCKAFAYTFSTYGISWVRQAPGQGLEWMGWISAYNSNTNYAQKVQGRITMTTDTSTRTAYMELRGLRSDDTAVYFCATFFGGHSGYHYGLDVWGQGTTVTVSS VL: EIVLTQSPATLSLSPGERATLSCRASQSVSSYLAWYQQKPGQAPRLLIYDASNRATGIPARFSGSGSGTDFTLTISSLEPEDFAVYYCQQRSNWPPYTFGQGTKLEIK
9.8 | 11 | 5.2 | 4.7 | 16 | > 1000 | 14 | 15 | 0.0895 | 0.402 | 4 | > 1000 | 39F12 antibody (antibody, IgG4, V domains shown, also called Mab06a; 39F12 IgG4) VH: QVQLVQSGAEVKKPGSSVKVSCKASGGTLSSYAFSWVRQAPGQGLEWMGGIIPFFGTTNYAQKFQGRVIITADESTNTAYMELSGLRSEDTAVYYCARDRDYYGLGSPFYYYGMDVWGQGTTVTVSS VL: EIVLTQSPDFQSVTPKEKVTITCRASQSIGSSLHWYQQKPDQSPKLLIKYASQSFSGVPSRFSGSGSGTDFTLTINSLEAEDAAAYYCHQSSSLPWTFGQGTKVEIK
